Data as given in the supplement of paper PMC7125110.
± gives the standard error. This sample holds only a part of the variants without activity.

B1: glmS ribozyme (parent)
chain: AUAAAAGCGCCAGAACUACAGAAAUGUAGUUGACGAGGAGGAGGUUUAUCGAAUUUUCGGCGGAUGCCUCCAAA

Columns and labels:
Details in all cases: with glucosamine-6-phosphate
glucosamine-6-phosphate [1] = variants of: B1; assay: self-cleavage kobs at 40 uM GlcN6P; higher = faster cleavage; RNA array
In short: (§1)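 Using a hybridised Cy3 probe at 37 °C, barcoded ribozyme variants transcribed in situ by E. coli RNA polymerase on sequenced MiSeq chips were monitored across tiles imaged over ~14 h. The flow contained glucosamine-6-phosphate from 40 μM to 10 mM in HEPES/KCl/Mg(OAc)2 buffer. Signals were normalised to baseline and to non-cleaving reference variants before per-tile medians were fit to one- or two-exponential decays to yield kobs. Weighted Michaelis–Menten fits across concentrations gave kcat and KM.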

glucosamine-6-phosphate [2] = variants of: B1; assay: self-cleavage kobs at 160 uM GlcN6P; higher = faster cleavage; RNA array
In short: as §1

glucosamine-6-phosphate [3] = variants of: B1; assay: self-cleavage kobs at 640 uM GlcN6P; higher = faster cleavage; RNA array
In short: as §1

glucosamine-6-phosphate [4] = variants of: B1; assay: self-cleavage kobs at 2500 uM GlcN6P; higher = faster cleavage; RNA array
In short: as §1

glucosamine-6-phosphate [5] = variants of: B1; assay: self-cleavage kobs at 10000 uM GlcN6P; higher = faster cleavage; RNA array
In short: as §1

| Variant | self-cleavage kobs at 40 uM GlcN6P (glucosamine-6-phosphate [1]) [s⁻¹] | self-cleavage kobs at 160 uM GlcN6P (glucosamine-6-phosphate [2]) [s⁻¹] | self-cleavage kobs at 640 uM GlcN6P (glucosamine-6-phosphate [3]) [s⁻¹] | self-cleavage kobs at 2500 uM GlcN6P (glucosamine-6-phosphate [4]) [s⁻¹] | self-cleavage kobs at 10000 uM GlcN6P (glucosamine-6-phosphate [5]) [s⁻¹] |
| --- | --- | --- | --- | --- | --- |
| A15G C70A | 5.87e-05 ± 7.8e-06 | 9.45e-05 ± 1.1e-05 | 0.000211 ± 2.2e-05 | 0.000382 ± 4e-05 | 0.00111 ± 0.00023 |
| A15U G38C G66U C67U | < 1e-05 |  |  |  | < 1e-05 |
| C16U U49G G59C G62U C67A | < 1e-05 |  |  |  |  |
| A14U C16U C70U | 0.000248 ± 7.9e-05 |  |  | 0.00092 ± 0.0002 | 0.00877 ± 0.0026 |
| A15U G51C A64G | < 1e-05 |  |  |  |  |
| C16U U45C A48U C68U | < 1e-05 |  |  |  |  |
| C16A G38C | < 1e-05 | < 1e-05 | < 1e-05 |  | < 1e-05 |
| C16G G29U G32A | 7.82e-05 ± 1.9e-05 |  |  |  | 0.0042 ± 0.0009 |
| A14U C34A G35C U45A C67U | < 1e-05 |  |  |  |  |
| A15C G38A C67G | < 1e-05 |  |  |  |  |
| A15G U31A A36U | < 1e-05 |  |  |  |  |
| C16A G62C | < 1e-05 | < 1e-05 | < 1e-05 | < 1e-05 | < 1e-05 |
| A14C A64G U65A C70A C71G | < 1e-05 |  |  |  | < 1e-05 |
| C16G C34G G44U C50U U69C | < 1e-05 |  |  |  |  |
| C16G G51C U55A U65A | < 1e-05 |  |  | < 1e-05 | < 1e-05 |
| A15U C16A G60U | < 1e-05 |  |  |  | < 1e-05 |
| A14G U69C | 0.00132 ± 0.00036 |  |  |  | 0.00782 ± 0.0029 |
| A15G G29A U55G | 5.71e-05 ± 1.7e-05 |  |  |  | 0.00317 ± 0.00043 |
| A15G A48U U55C | < 1e-05 |  |  |  | 0.000412 ± 8.4e-05 |
| G13U G32A G37C A42C | < 1e-05 | < 1e-05 |  | < 1e-05 | < 1e-05 |
| A15G U30A U31G G41U | 0.00015 ± 5.1e-05 |  |  |  | 0.000456 ± 0.00017 |
| A15G C50A | < 1e-05 |  |  |  | 3.83e-05 ± 1.4e-05 |
| A14U C61A | < 1e-05 |  |  |  | < 1e-05 |
| A14U C50G C58U | 0.000443 ± 0.00014 |  |  |  | 3.69e-05 ± 1.8e-05 |
| C16G G35A U56G G63C | < 1e-05 |  |  |  | < 1e-05 |
| C16U G32C G40U C58U | < 1e-05 |  |  |  |  |
| A15G A33G G41C | < 1e-05 |  |  |  | < 1e-05 |

| Variant | self-cleavage kobs at 40 uM GlcN6P (glucosamine-6-phosphate [1]) [s⁻¹] | self-cleavage kobs at 160 uM GlcN6P (glucosamine-6-phosphate [2]) [s⁻¹] | self-cleavage kobs at 640 uM GlcN6P (glucosamine-6-phosphate [3]) [s⁻¹] | self-cleavage kobs at 2500 uM GlcN6P (glucosamine-6-phosphate [4]) [s⁻¹] | self-cleavage kobs at 10000 uM GlcN6P (glucosamine-6-phosphate [5]) [s⁻¹] |
| --- | --- | --- | --- | --- | --- |
| G13U G41A U49G U55G | < 1e-05 |  |  | < 1e-05 |  |
| A14U A52C | < 1e-05 | < 1e-05 |  |  |  |
| A14C A15U U47C | < 1e-05 |  |  |  |  |
| A15U G43U | < 1e-05 | < 1e-05 | < 1e-05 |  | < 1e-05 |
| A15C G59U | < 1e-05 | < 1e-05 | < 1e-05 |  |  |
| A14U G35U G44C U57C | < 1e-05 |  |  | < 1e-05 | < 1e-05 |
| A14G A15G G66U | 0.0002 ± 4.3e-05 |  |  | 0.00252 ± 0.0011 | 0.0089 ± 0.0018 |
| A15C A33U C61A | < 1e-05 |  |  |  |  |
| C16U A36U A64G | < 1e-05 |  |  |  |  |
| C16U G60U | < 1e-05 | < 1e-05 | < 1e-05 |  |  |
| A15C A53U G62A | < 1e-05 |  |  | < 1e-05 | < 1e-05 |
| C16U A53U | 0.00056 ± 5.9e-05 | 0.000815 ± 0.00015 | 0.00552 ± 0.00076 | 0.00594 ± 0.0012 | 0.0301 ± 0.0055 |
| A15G U49C | < 1e-05 |  | < 1e-05 |  |  |
| A14G U54G | 0.00166 ± 0.00021 | 0.0021 ± 0.00047 | 0.0114 ± 0.003 |  | 0.023 ± 0.0048 |
| A14U U56G | 0.000924 ± 0.00012 | 0.00383 ± 0.00078 | 0.0066 ± 0.0011 | 0.0108 ± 0.0026 | 0.0462 ± 0.0095 |
| A14U C34U | < 1e-05 | < 1e-05 | < 1e-05 | < 1e-05 | < 1e-05 |
| A14U C34G | < 1e-05 | < 1e-05 | < 1e-05 |  | < 1e-05 |
| A14G G62A | < 1e-05 |  |  |  |  |
| A15U A64C | < 1e-05 | < 1e-05 |  |  |  |
| A15G G32C G41A C70A | < 1e-05 |  |  |  |  |
| A15G G41A U57G | < 1e-05 |  |  |  |  |
| C16G G35C A36U A42U C50U | < 1e-05 |  |  |  | < 1e-05 |
| A14U A42G G44U G63U | < 1e-05 |  |  | < 1e-05 |  |
| C16G G37A G40A A48G | < 1e-05 |  |  |  | < 1e-05 |
| A15C G35A G51A C68A | < 1e-05 |  | < 1e-05 |  | < 1e-05 |
| A15G A42G A53G | 0.00166 ± 0.00034 |  | 0.00796 ± 0.003 |  |  |
